Test results: paper PMC10239968, “[^18F]AlF-NOTA-ADH-1: A new PET molecular radiotracer for imaging of N-cadherin-positive tumors” (Frontiers in Oncology, 2023)

Assays:
[1] = format: physicochemical
Method: The partition coefficient of [^18F]AlF-NOTA-ADH-1 was measured by assessing the distribution of radioactivity in 1-octanol and phosphate buffer in a 2 mL centrifuge tube. 20µL of [^18F]AlF-NOTA-ADH-1 solution was added to a tube containing 0.5 mL each of 1-octanol and PBS. The mixture was vortexed and centrifuged (5,000 r/min) for 5 min. A total of 2 samples (50 μL) were collected from each layer and were assayed in a γ counter. Partition coefficients (log Po/w) are shown as the log counts in 1-octanol vs. PBS layers (n=3).

in vivo = experiment: in vivo; set-up: species or system Kunming mice; settings: mouse; for tissue uptake at 2 min / tissue uptake at 5 min / tissue uptake at 0.25 h / tissue uptake at 0.5 h / tissue uptake at 1 h / tissue uptake at 2 h: Kunming, total radioactivity
Method: Thirty SPF Kunming mice weighing 18-20g were randomly divided into 6 groups (n=5). As described above, [^18F]AlF-NOTA-ADH-1 was purified and separated by HPLC analysis. Each mouse was injected with a dose of 0.74MBq (20μCi) through a caudal vein. Blood was collected from the orbit, the mice were sacrificed, and the brain, heart, lung, liver, spleen, kidney, stomach, intestine, muscle, bone and other organs were taken at 2 min, 5 min, 15 min, 30 min, 60min and 120min after injection. The radioactivity results were recorded as injected radioactivity per gram of tissue (% ID/g) corrected for background and decay.

SW480 tumor xenografts = experiment: Micro-PET imaging, SW480 tumor model; format: in vivo, nude mice; settings: SW480 tumor-bearing nude mouse model, 60 min after injecting, non-blocked
Method: (§1) [^18F]AlF-NOTA-ADH-1 was evaluated by micro-PET imaging on nude mice bearing a PDX tumor, SW-480 and BxPC3 tumor xenografts. Each tumor-bearing nude mouse was injected with 3.7MBq [^18F]AlF-NOTA-ADH-1 via the tail vein. After being anesthetized with isoflurane, tumor-bearing nude mice were imaged using a micro-PET/CT scanner at 60 minutes post-injection under continuous isoflurane inhalation using a nasal mask with a connecting tube. Micro-PET/CT scanning was performed after low-dose 3D acquisition CT scanning at 10 minutes per bed. A blocking study was conducted, in which a saturating dose of unlabeled ADH-1 (20 mg/kg of mouse body weight) was intravenously administered 60 min before the intravenous injection of [^18F]AlF-NOTA-ADH-1.
(§2) The three-dimensional volume of interest (VOI) was used to assess the standard uptake value (SUV) of selected organs. The Seimens Inveon analysis software configured with micro-PET/CT was used to delineate the region of interest along the edge of the tumor and each normal tissue on the PET image. Subsequently, the SUV of each region of interest was measured, and the tumor/non-tumor ratio (T/NT) between the tumor and normal tissue was measured.

BxPC3 tumor xenografts = experiment: Micro-PET imaging, BxPC3 tumor model; format: in vivo, nude mice; settings: BxPC3-bearing tumor model mice, 60 min p.i.
Method: as §1, §2

[2] = iv, 0.74 MBq (20 uCi) per mouse, Blood radioactive concentration
[3] = iv, 0.74 MBq (20 uCi) per mouse, Bone uptake
[4] = iv, 0.74 MBq (20 uCi) per mouse, Brain uptake
[5] = iv, 0.74 MBq (20 uCi) per mouse, Intestines uptake
[6] = iv, 0.74 MBq (20 uCi) per mouse, Muscle uptake
[7] = iv, 0.74 MBq (20 uCi) per mouse, Skin uptake

For CC(=O)N[C@H]1CSSC[C@@H](C(=O)NCCNC(=O)CN2CCN(CC(=O)O)CCN(CC(=O)O)CC2)NC(=O)[C@H](C(C)C)NC(=O)[C@H](C)NC(=O)[C@H](Cc2c[nH]cn2)NC1=O [[^18F]AlF-NOTA-ADH-1], the “Partition coefficient (log Po/w)” value [1] was -2.45 ± 0.09, the tissue uptake at 2 min (in vivo; [2]) was 18.8 ± 1.95 %ID/g and the tissue uptake at 5 min (in vivo; [2]) was 8.77 ± 1.37 %ID/g. For the same compound, the tissue uptake at 0.25 h (in vivo; [2]) was 3.79 ± 1.19 %ID/g, the tissue uptake at 0.5 h (in vivo; [2]) was 2.28 ± 0.81 %ID/g and the tissue uptake at 1 h (in vivo; [2]) was 2.15 ± 0.18 %ID/g. The tissue uptake at 2 h (in vivo; [2]) was 1.04 ± 0.36 %ID/g, the tissue uptake at 2 min (in vivo; [3]) was 5.3 ± 0.94 %ID/g and the tissue uptake at 5 min (in vivo; [3]) was 6.71 ± 0.62 %ID/g. The tissue uptake at 0.25 h (in vivo; [3]) was 3.72 ± 0.29 %ID/g, the tissue uptake at 0.5 h (in vivo; [3]) was 3.09 ± 0.26 %ID/g and the tissue uptake at 1 h (in vivo; [3]) was 1.51 ± 0.36 %ID/g. The tissue uptake at 2 h (in vivo; [3]) was 1.38 ± 0.73 %ID/g, the tissue uptake at 2 min (in vivo; [4]) was 1.05 ± 0.25 %ID/g and the tissue uptake at 5 min (in vivo; [4]) was 0.87 ± 0.3 %ID/g. It also gave a tissue uptake at 0.25 h (in vivo; [4]) of 0.46 ± 0.1 %ID/g, a tissue uptake at 0.5 h (in vivo; [4]) of 0.39 ± 0.1 %ID/g and a tissue uptake at 1 h (in vivo; [4]) of 0.22 ± 0.05 %ID/g. It also gave a tissue uptake at 2 h (in vivo; [4]) of 0.58 ± 0.68 %ID/g, a tissue uptake at 2 min (in vivo; iv, 0.74 MBq (20 uCi) per mouse, Heart uptake) of 9.15 ± 0.91 %ID/g and a tissue uptake at 2 min (in vivo; [5]) of 5.39 ± 0.84 %ID/g. For the same compound, the tissue uptake at 5 min (in vivo; [5]) was 6.06 ± 1.42 %ID/g, the tissue uptake at 0.25 h (in vivo; [5]) was 5.73 ± 0.64 %ID/g and the tissue uptake at 0.5 h (in vivo; [5]) was 6.28 ± 0.59 %ID/g. For the same compound, the tissue uptake at 1 h (in vivo; [5]) was 5.27 ± 1.09 %ID/g, the tissue uptake at 2 h (in vivo; [5]) was 4.18 ± 0.53 %ID/g and the tissue uptake at 2 min (in vivo; [6]) was 3.97 ± 0.56 %ID/g. The tissue uptake at 5 min (in vivo; [6]) was 5.91 ± 1.16 %ID/g, the tissue uptake at 0.25 h (in vivo; [6]) was 2.79 ± 0.68 %ID/g and the tissue uptake at 0.5 h (in vivo; [6]) was 3.32 ± 1.77 %ID/g. For the same compound, the tissue uptake at 1 h (in vivo; [6]) was 1.08 ± 0.21 %ID/g, the tissue uptake at 2 h (in vivo; [6]) was 1.22 ± 0.7 %ID/g and the tissue uptake at 2 min (in vivo; [7]) was 5.6 ± 0.85 %ID/g. It also gave a tissue uptake at 5 min (in vivo; [7]) of 5.08 ± 2.74 %ID/g, a tissue uptake at 0.25 h (in vivo; [7]) of 3.11 ± 1.47 %ID/g and a tissue uptake at 0.5 h (in vivo; [7]) of 2.59 ± 0.96 %ID/g. For the same compound, the tissue uptake at 1 h (in vivo; [7]) was 1.85 ± 1.48 %ID/g, the tissue uptake at 2 h (in vivo; [7]) was 1.1 ± 0.96 %ID/g and the tissue uptake at 5 min (in vivo; iv, 0.74 MBq, Heart uptake) was 7.54 ± 2.08 %ID/g. For the same compound, the tissue uptake at 0.25 h (in vivo; iv, 0.74 MBq, Heart uptake) was 3.57 ± 0.82 %ID/g, the tissue uptake at 0.5 h (in vivo; iv, 0.74 MBq, Heart uptake) was 3.64 ± 0.66 %ID/g and the tissue uptake at 1 h (in vivo; iv, 0.74 MBq, Heart uptake) was 1.19 ± 0.7 %ID/g. The tissue uptake at 2 h (in vivo; iv, 0.74 MBq, Heart uptake) was 1.01 ± 0.15 %ID/g, the tissue uptake at 2 min (in vivo; iv, 0.74 MBq, Kidney uptake) was 24.9 ± 1.12 %ID/g and the tissue uptake at 5 min (in vivo; iv, 0.74 MBq, Kidney uptake) was 36.5 ± 2 %ID/g. It also gave a tissue uptake at 0.25 h (in vivo; iv, 0.74 MBq, Kidney uptake) of 22.1 ± 1.43 %ID/g, a tissue uptake at 0.5 h (in vivo; iv, 0.74 MBq, Kidney uptake) of 25.7 ± 1.17 %ID/g and a tissue uptake at 1 h (in vivo; iv, 0.74 MBq, Kidney uptake) of 22.2 ± 1.92 %ID/g. The tissue uptake at 2 h (in vivo; iv, 0.74 MBq, Kidney uptake) was 15.2 ± 0.96 %ID/g, the tissue uptake at 2 min (in vivo; iv, 0.74 MBq, Liver uptake) was 8.01 ± 1.26 %ID/g and the tissue uptake at 5 min (in vivo; iv, 0.74 MBq, Liver uptake) was 7.09 ± 2.03 %ID/g. For the same compound, the tissue uptake at 0.25 h (in vivo; iv, 0.74 MBq, Liver uptake) was 14.8 ± 1.11 %ID/g, the tissue uptake at 0.5 h (in vivo; iv, 0.74 MBq, Liver uptake) was 16.1 ± 2.34 %ID/g and the tissue uptake at 1 h (in vivo; iv, 0.74 MBq, Liver uptake) was 21.6 ± 3.53 %ID/g. It also gave a tissue uptake at 2 h (in vivo; iv, 0.74 MBq, Liver uptake) of 13.7 ± 2.35 %ID/g, a tissue uptake at 2 min (in vivo; iv, 0.74 MBq, Lung uptake) of 6.26 ± 1.29 %ID/g and a tissue uptake at 5 min (in vivo; iv, 0.74 MBq, Lung uptake) of 4.74 ± 1.69 %ID/g. It also gave a tissue uptake at 0.25 h (in vivo; iv, 0.74 MBq, Lung uptake) of 3.05 ± 0.4 %ID/g, a tissue uptake at 0.5 h (in vivo; iv, 0.74 MBq, Lung uptake) of 2.15 ± 0.27 %ID/g and a tissue uptake at 1 h (in vivo; iv, 0.74 MBq, Lung uptake) of 2.19 ± 0.42 %ID/g. For the same compound, the tissue uptake at 2 h (in vivo; iv, 0.74 MBq, Lung uptake) was 1.62 ± 0.35 %ID/g, the tissue uptake at 2 min (in vivo; iv, 0.74 MBq, Spleen uptake) was 3.84 ± 1.47 %ID/g and the tissue uptake at 5 min (in vivo; iv, 0.74 MBq, Spleen uptake) was 5.09 ± 1.29 %ID/g. The tissue uptake at 0.25 h (in vivo; iv, 0.74 MBq, Spleen uptake) was 3.08 ± 0.55 %ID/g, the tissue uptake at 0.5 h (in vivo; iv, 0.74 MBq, Spleen uptake) was 2.66 ± 0.22 %ID/g and the tissue uptake at 1 h (in vivo; iv, 0.74 MBq, Spleen uptake) was 1.81 ± 0.57 %ID/g. For the same compound, the tissue uptake at 2 h (in vivo; iv, 0.74 MBq, Spleen uptake) was 1.24 ± 0.3 %ID/g, the tissue uptake at 2 min (in vivo; iv, 0.74 MBq, Stomach uptake) was 5.63 ± 1.98 %ID/g and the tissue uptake at 5 min (in vivo; iv, 0.74 MBq, Stomach uptake) was 7.27 ± 1.89 %ID/g. The tissue uptake at 0.25 h (in vivo; iv, 0.74 MBq, Stomach uptake) was 4.26 ± 0.55 %ID/g, the tissue uptake at 0.5 h (in vivo; iv, 0.74 MBq, Stomach uptake) was 4.78 ± 0.98 %ID/g and the tissue uptake at 1 h (in vivo; iv, 0.74 MBq, Stomach uptake) was 2.32 ± 0.56 %ID/g. For the same compound, the tissue uptake at 2 h (in vivo; iv, 0.74 MBq, Stomach uptake) was 1.55 ± 0.2 %ID/g, the “In vivo defluorination (bone uptake)” value (in vivo) was “no obvious in vivo defluorination” and the Blood clearance (in vivo; iv) was “rapid blood clearance”. The “Micro-PET T/Bone” value (SW480 tumor xenografts) was 1.903±0.273, the “Micro-PET T/Lung” value (SW480 tumor xenografts) was 3.359±2.998 and the Micro-PET tumor/muscle ratio (SW480 tumor xenografts) was 1.443±0.121. For the same compound, the “Micro-PET T/Bone” value (BxPC3 tumor xenografts) was 0.055 ± 0.022, the “Micro-PET T/Lung” value (BxPC3 tumor xenografts) was 0.291 ± 0.195 and the Micro-PET tumor/muscle ratio (BxPC3 tumor xenografts) was 1.018 ± 0.498.
